Measured values: IntAct's records for PubMed 17537733

Target: kdm1a_human KDM1A (UniProt O60341)

effect of a mutation on the interaction: decreasing interaction
Substance: Histone H3.1t (Homo sapiens) (from UniProt Q16695) K5M
